From patent US20150344570A1 (published 2015)
Substitutions are numbered along the chain they refer to.

T1: FcγRIIb (human, UniProt P31994 43-217)
T1 construct: extracellular domain; also called FcgRIIb; 2b
T1 sequence (looked up): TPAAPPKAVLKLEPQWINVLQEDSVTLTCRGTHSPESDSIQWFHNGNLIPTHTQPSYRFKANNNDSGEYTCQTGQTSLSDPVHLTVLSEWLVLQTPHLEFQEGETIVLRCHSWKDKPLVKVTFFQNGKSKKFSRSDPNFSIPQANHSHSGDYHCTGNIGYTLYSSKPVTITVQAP

T2: FcγRIIa H (human, UniProt P12318 34-217)
T2 construct: extracellular domain; also called FcγRIIa type H; 2aH
T2 sequence (looked up): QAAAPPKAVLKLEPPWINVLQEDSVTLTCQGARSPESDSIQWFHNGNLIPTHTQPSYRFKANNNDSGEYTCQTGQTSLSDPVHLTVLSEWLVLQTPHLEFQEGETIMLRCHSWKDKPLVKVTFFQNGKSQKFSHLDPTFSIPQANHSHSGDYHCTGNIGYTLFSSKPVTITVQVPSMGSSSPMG

T3: FcγRIIb (human, UniProt P31994 43-217)
T3 construct: extracellular domain; also called 2b; FcgRIIb
T3 sequence (looked up): T1 sequence (looked up)

T4: FcγRIIa R extracellular domain with C-terminal His tag (human, UniProt P12318 34-217)
T4 construct: extracellular domain; also called FcgRIIa R; 2aR; not shown: His tag at the C terminus
T4 sequence (looked up): T2 sequence (looked up) with H134R

B1: GpH7-A5/GpH7-B3 variant D265_15Y/GpL16-k0 (antibody, human IgG1, kappa)
heavy 1: not shown
heavy 2: not shown
light: DIVMTQSPLSLPVTPGEPASISCQASESLVHSNRNTYLHWYLQKPGQSPQLLIYKVSNRFSGVPDRFSGSGSGTDFTLKISRVEAEDVGVYYCSQNTHVPPTFGQGTKVEIERTVAAPSVFIFPPSDEQLKSGTASVVCLLNNFYPREAKVQWKVDNALQSGNSQESVTEQDSKDSTYSLSSTLTLSKADYEKHKVYACEVTHQGLSSPVTKSFNRGEC
notes: heterodimerized anti-glypican-3 IgG1; alteration in one H chain only; also called He Ab
B2: GpH7-A5/GpH7-B3 variant D270_01G/GpL16-k0 (antibody, human IgG1, kappa)
heavy 1: not shown
heavy 2: not shown
light: B1 light
notes: Heterodimerized anti-glypican-3 IgG1 (He Ab); mutation in the B3 H chain only; also called He Ab
B3: GpH7-A5/GpH7-B3 variant T335_07I/GpL16-k0 (antibody, human IgG1, kappa)
heavy 1: not shown
heavy 2: not shown
light: B1 light
notes: heterodimerized: alteration in one H chain only; also called He Ab T335_07I
B4: GpH7-A5/GpH7-B3 variant S337_10E/GpL16-k0 (antibody, human IgG1, kappa)
heavy 1: not shown
heavy 2: not shown
light: B1 light
notes: heterodimerized: alteration in one H chain only; also called He Ab S337_10E
B5: GpH7-A5/GpH7-B3 variant D265_20W/GpL16-k0 (antibody, human IgG1, kappa)
heavy 1: not shown
heavy 2: not shown
light: B1 light
notes: as for B1
B6: GpH7-A5/GpH7-B3 variant S267_06M/GpL16-k0 (antibody, human IgG1, kappa)
heavy 1: not shown
heavy 2: not shown
light: B1 light
notes: heterodimerized: alteration in one H chain only; also called He Ab S267_06M
B7: GpH7-A5/GpH7-B3 variant P331_15Y/GpL16-k0 (antibody, human IgG1, kappa)
heavy 1: not shown
heavy 2: not shown
light: B1 light
notes: heterodimerized: alteration in one H chain only; also called He Ab P331_15Y
B8: GpH7-A5/GpH7-B3 variant D270_02A/GpL16-k0 (antibody, human IgG1, kappa)
heavy 1: not shown
heavy 2: not shown
light: B1 light
notes: as for B2
B9: GpH7-A5/GpH7-B3 variant S337_18N/GpL16-k0 (antibody, human IgG1, kappa)
heavy 1: not shown
heavy 2: not shown
light: B1 light
notes: heterodimerized: alteration in one H chain only; also called He Ab S337_18N
B10: GpH7-A5/GpH7-B3 variant S337_16H/GpL16-k0 (antibody, human IgG1, kappa)
heavy 1: not shown
heavy 2: not shown
light: B1 light
notes: heterodimerized: alteration in one H chain only; also called He Ab S337_16H
B11: GpH7-A5/GpH7-B3 variant T335_02A/GpL16-k0 (antibody, human IgG1, kappa)
heavy 1: not shown
heavy 2: not shown
light: B1 light
notes: heterodimerized: alteration in one H chain only; also called He Ab T335_02A
B12: GpH7-A5/GpH7-B3 variant S337_20W/GpL16-k0 (antibody, human IgG1, kappa)
heavy 1: not shown
heavy 2: not shown
light: B1 light
notes: heterodimerized: alteration in one H chain only; also called He Ab S337_20W
B13: GpH7-A5/GpH7-B3 variant S324_06M/GpL16-k0 (antibody, human IgG1, kappa)
heavy 1: not shown
heavy 2: not shown
light: B1 light
notes: heterodimerized: alteration in one H chain only; also called He Ab S324_06M
B14: GpH7-A5/GpH7-B3 variant V266_12R/GpL16-k0 (antibody, human IgG1, kappa)
heavy 1: not shown
heavy 2: not shown
light: B1 light
notes: as for B1
B15: GpH7-A5/GpH7-B3 variant T335_05P/GpL16-k0 (antibody, human IgG1, kappa)
heavy 1: not shown
heavy 2: not shown
light: B1 light
notes: heterodimerized: alteration in one H chain only; also called He Ab T335_05P
B16: GpH7-A5/GpH7-B3 variant S239_18N/GpL16-k0 (antibody, human IgG1, kappa)
heavy 1: not shown
heavy 2: not shown
light: B1 light
notes: heterodimerized: alteration in one H chain only; also called He Ab S239_18N
B17: GpH7-A5/GpH7-B3 variant S267_09D/GpL16-k0 (antibody, human IgG1, kappa)
heavy 1: not shown
heavy 2: not shown
light: B1 light
notes: heterodimerized: alteration in one H chain only; also called He Ab S267_09D
B18: GpH7-A5/GpH7-B3 variant S267_19Q/GpL16-k0 (antibody, human IgG1, kappa)
heavy 1: not shown
heavy 2: not shown
light: B1 light
notes: heterodimerized: alteration in one H chain only; also called He Ab S267_19Q
B19: GpH7-A5/GpH7-B3 variant S337_15Y/GpL16-k0 (antibody, human IgG1, kappa)
heavy 1: not shown
heavy 2: not shown
light: B1 light
notes: heterodimerized: alteration in one H chain only; also called He Ab S337_15Y

How the values were obtained:
FcγRIIb [1] = target: T1, FcγRIIb; assay: SPR (Biacore), captured antibody, FcγR as analyte; relative binding, control GpH7-A5/GpH7-B3/GpL16-k0 = 100
Protocol: (§1) The heterodimerized antibodies He Abs in which one of the H chains was introduced with an alteration were assayed for their binding activities to each activating FcγR and inhibitory FcγR according to the method described in Example 4. […] The activating FcγRs in FIGS. 26, 27, 28, and 29 are FcγRIa, FcγRIIa (R), FcγRIIa (H), and FcγRIIIa, respectively.
(§2) Analysis of interaction between objective antibody and the FcγR was carried out using Biacore T100 (GE Healthcare). HBS-EP+ (GE Healthcare) was used as the running buffer, and the measurement temperature was set to 25° C. Chips produced by immobilizing the antigen peptide by the amine coupling method to a Series S Sencor Chip CM5 (GE Healthcare), or alternatively, chips produced by allowing preliminarily biotinylated antigen peptides to interact with and immobilize onto a Series S Sensor Chip SA (certified) (GE Healthcare) were used. Antibodies of interest were captured onto an antigen peptide-immobilized chip, and allowed to interact to each FcγR diluted with running buffer. To regenerate and repeatedly use the chip, the antibodies captured on the chip were washed off by reacting 10 mM glycine-HCl, pH 1.5.

FcγRIIa H [2] = target: T2, FcγRIIa H; assay: SPR (Biacore), captured antibody, FcγR as analyte; GpH7-A5/GpH7-B3/GpL16-k0 = 100
Protocol: as §1, §2

FcγRIIb [3] = target: T3, FcγRIIb; assay: as above
Protocol: as §1, §2

FcγRIIa H [4] = target: T2, FcγRIIa H; assay: ratio of He/Con_2aH to He/Con_2b (FcγRIIb); SPR
[5] = target: T4, FcγRIIa R extracellular domain with …; assay: SPR (Biacore), relative FcγRIIa R binding, GpH7-A5/GpH7-B3/GpL16-k0 = 100

| Binder | He/Con_2aR [5] | other results |
| --- | --- | --- |
| B1 |  | He/Con_2b (FcγRIIb [1]): 0.6 control = 100 |
| B2 |  | He/Con_2aH (relative binding) (FcγRIIa H [2]): 52.5%; He/Con_2b (relative binding) (FcγRIIb [3]): 30.5%; He_2aH/2b (IIaH/IIb ratio) (FcγRIIa H [4]): 1.72 |
| B3 | 109 % of control |  |
| B4 | 112 % of control |  |
| B5 |  | He/Con_2b (FcγRIIb [1]): 1.1 control = 100 |
| B6 | 122 % of control |  |
| B7 | 112 % of control |  |
| B8 |  | He/Con_2aH (relative binding) (FcγRIIa H [2]): 76.4%; He/Con_2b (relative binding) (FcγRIIb [3]): 48.3%; He_2aH/2b (IIaH/IIb ratio) (FcγRIIa H [4]): 1.58 |
| B9 | 107 % of control |  |
| B10 | 109 % of control |  |
| B11 | 102 % of control |  |
| B12 | 110 % of control |  |
| B13 | 123 % of control |  |
| B14 |  | He/Con_2b (FcγRIIb [1]): -1.1 control = 100 |
| B15 | 104 % of control |  |
| B16 | 111 % of control |  |
| B17 | 173 % of control |  |
| B18 | 135 % of control |  |
| B19 | 105 % of control |  |
